Laboratory results: the supplement of paper PMC12042874
± gives the uncertainty stated by the source.

Assay: amyloid nucleation score (Sup35N fusion, yeast selection) (log enrichment); library NNK1; higher = more nucleation; inactive = no reads after selection
Summary of the method: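 The nucleation score is the DiMSum log enrichment of output over input reads, centred on the mode score of non-aggregating sequences. Only sequences with 100 or more input reads were scored, using Illumina sequencing of input and output plasmid inserts. Psi-negative yeast expressing Sup35N fused to peptides of 20 random codons were induced 24 hours with 100 μM copper sulfate and grown 7 days at 30°C on medium lacking adenine and uracil.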

Substance | amyloid nucleation score
FKRCKRIPDPQSIGSRHFGA | 0.568 ± 0.58
FKSYCVGLHDYGP | 0.242 ± 0.99
FKWLTVRGNDRGILDDG | -0.158 ± 0.52
FLCLI | -2.52 ± 2.7
FLDMVVMGCEFRPSGGFSSV | -0.156 ± 0.38
FLENSTTSYNCYFNARWKCS | 0.389 ± 0.35
FLFAMFNSISMKSAKLKWNR | 3.91 ± 0.086
FLGLCS | -0.278 ± 0.4
FLICDGSDRQMF | 0.315 ± 0.23
FLILLGLVEDGTLYAVRTVG | -0.849 ± 0.8
FLINGISSLCGLVVGLKFMD | 0.755 ± 0.34
FLKFDTSMVVLGWTFLMESF | -0.023 ± 0.41
FLKLFHLRGFLYG | inactive
FLLHWFEYGIPNVYRSRRD | inactive
FLLLCRSFFSARTILRCTMV | 0.631 ± 0.89
FLLLFDQFSVLMCCAQVLCL | 4.56 ± 0.058
FLLMVWDIYECVGNTLKRCA | 0.027 ± 0.42
FLMGSYMFTTTVQISHDLMW | -0.354 ± 0.61
FLNGKSGHAVVKLEGLMTNW | 0.447 ± 0.32
FLQCNRNSVGRLVAHLCCAR | inactive
FLQLLGGLRSYKTRVCMWCV | -2.21 ± 2.7
FLRPTGHSGCQFGAMSSKKG | 0.464 ± 1.2
FLRTD | 0.171 ± 1.2
FLTQPFAFIVLCGSKYTSSD | -0.463 ± 0.48
FLVCSFNYGAAPFFGGFMHY | 0.679 ± 0.23

Substance | amyloid nucleation score
FLVQVAWFLPAGGYGDNFCC | 0.049 ± 0.39
FLVYGSSGFTAVLGPQCEEG | -0.777 ± 1.4
FLWIYLSNTVLG | -0.535 ± 0.33
FLWSIICSYSQLY | -0.201 ± 0.35
FMATNTKAMGPLRSAK | 0.224 ± 0.58
FMEVWRYWRFIVSRERFNHI | -0.207 ± 0.78
FMIHMLTGSLLRVNDCNLGE | 0.987 ± 0.64
FMLERYFQ | -0.157 ± 0.24
FMLVAG | 0.746 ± 0.53
FMRDFSGCSNDRFDGDLALC | 0.024 ± 0.62
FMVKHSDDRGYLCFLGIEKV | 0.209 ± 0.93
FMYAQMFPTAVQDYVK | inactive
FMYTDPDSVPQGSDTTSLAL | -0.129 ± 0.46
FNDRPVWVFCLRWWDSSVNS | -0.857 ± 0.84
FNFEFLTCL | inactive
FNKQFCK | 0.776 ± 0.44
FNLRKRRA | 0.205 ± 0.38
FNRENGRNFALVVCLLDRFG | 1.41 ± 0.17
FNRNRIGGEIVMSNNYMYHS | 1.58 ± 0.33
FNSARGSLVPRFPRGEQR | -0.787 ± 1.9
FNSRAICGEIVNIPHQSPGD | 1.16 ± 0.67
FNVGLPLAGIISTKTD | -1.83 ± 2.7
FNWLTVSAFHQHRTLTMNMY | 0.216 ± 0.3
FNYHRRPLNYISNRQYGGLS | inactive
FNYVILTFWVKYTFSAHCV | -0.271 ± 0.64

Substance | amyloid nucleation score
FNYYYLVEWGDGASIRIASI | -0.473 ± 1.4
FPCALSYAGMVSTVRALRKF | 0.228 ± 0.8
FPFFLMCMSSGFYSV | 2.35 ± 0.25
FPLCSCHCYSSTWMCYRASL | 0.048 ± 0.97
FPLGTQDRIIRFVESQYDSM | -0.516 ± 1.7
FPRHYCTYWG | -0.157 ± 0.36
FQARHIFHVFLVSSSRVRLT | 1.65 ± 0.47
FQCVILVPG | 1.03 ± 0.74
FQGMYWNGFSSSSMSAATPR | 0.157 ± 0.52
FQWNAANYANSYPCKLLCSA | 1.78 ± 0.21
FQYGLGMRVRWKDAMLIRTR | inactive
FREFWPGLYYTTPYKLSNHC | -2.14 ± 1.1
FRKEMIFYS | 1.54 ± 0.47
FRKTMLWVLVVMGPIFTGSR | 0.548 ± 0.87
FRNLTVGAWRPMPGERMPIG | -0.182 ± 0.42
FRSGTHWSMDFGHAKEIRR | 1.39 ± 0.14
FRSTPWNPMSTELVIFSPSV | 1.16 ± 0.43
FRVMILLLTEMWSMESNRDL | 3.4 ± 0.14
FRVYFIVRVPYI | 1.36 ± 0.52
FRWRSSGGLVCFLDAVVVSV | -0.249 ± 0.38
FSALPTLASGLGFGR | 0.604 ± 0.73
FSDVCGPSPLCW | 0.142 ± 0.44
FSFDLLSVESGITNV | -0.054 ± 0.82
FSFVSECGLAGFYPRE | 0.35 ± 0.55
FSGGGNITACGCV | -0.385 ± 0.65

Substance | amyloid nucleation score
FSGVTMR | 1.7 ± 0.32
FSHIELLERAVLMSRVRFLW | -0.514 ± 1.5
FSHLKYNSVHFIPLRDFDSL | 0.938 ± 0.41
FSLCDSKSKWLLYCSGSFNL | 2.69 ± 0.14
FSPRIALVFRKYQGMASQPP | 4.45 ± 0.061
FSRCCTFSSDYFNARCIERN | 1.22 ± 0.23
FSRFWISSKHT | -1.33 ± 1.3
FSSCLTMRLV | -0.365 ± 1.6
FSSSTRSLNNPLL | 0.006 ± 0.44
FSYCEWRDKCCERWSFLDNQ | 1.11 ± 0.49
FTAWP | -0.242 ± 0.3
FTMFFPMGSVC | 0.292 ± 0.64
FTRKEVVPMWDKEDRVCIGD | 0.02 ± 0.74
FTRWLSFKTYG | -0.283 ± 0.66
FTSFFVSV | -1.91 ± 1.9
FTTDVERSVLFEVNLWSNGW | 5.33 ± 0.066
FTVLVELALFMRSCLSRGFN | -0.261 ± 0.27
FVCWVGTGLMIRVAIDQCWR | -0.202 ± 0.31
FVEMVYFNECCIPKFDIEYV | 1.6 ± 0.17
FVGGPPMIQYVVPV | 0.326 ± 0.42
FVLRLS | inactive
FVLRV | 0.423 ± 0.47
FVMSHSL | 0.987 ± 0.43
FVNFGFAGIASWHFVLMFIK | 0.1 ± 0.27
FVSTVYLY | 5.35 ± 0.064

Substance | amyloid nucleation score
FVTIWWLYRTCIFLSTVRTT | 1.5 ± 0.26
FVTMAVWGLYTCFKVHKGIV | -0.4 ± 0.78
FVVSLECTTRRVGLGALC | inactive
FVVVVGSHLGDGFCDCWVNC | 2.03 ± 0.24
FVYLVHLLMNGRVIKLFRDM | -0.372 ± 0.27
FWCMALK | -1.05 ± 2.4
FWDVTPWCHSRDCAVLFSRA | -1.37 ± 2.7
FWEYSSRNPQSHYTVLRSKV | -0.509 ± 0.32
FWREHTMR | inactive
FWVDCSRVVRLKIQFNLV | 0.864 ± 0.42
FWVFAITFTAERKLQADDLF | 1.84 ± 0.15
FYEASDRGERLEQKLKLTVL | 1.51 ± 0.49
FYFSASATIL | -0.093 ± 0.81
FYIILNVLFPRQVTCSDK | 5.7 ± 0.075
FYITQTEGQLLLCR | -0.148 ± 0.55
FYMGGDCVYNECQGEIRLSL | -0.234 ± 0.7
FYPIYGFRWTIFYQPALYNL | -1.08 ± 1.7
FYPLF | 1.27 ± 0.66
FYVSLRWV | 0.105 ± 0.45
FYVVRGHGHCWM | 0.68 ± 0.33
FYYYSSCHYWYC | -0.13 ± 0.79
GAAQWMKNSTIGHARFIADL | 0.2 ± 0.39
GAICQGLINDVVGRGDGMMR | 1.19 ± 0.97
GALVCRCDGCYKSMGKAIMA | -0.243 ± 0.56
GCGFS | -0.126 ± 0.4

Substance | amyloid nucleation score
GCIECEGAGCAPIYGVEWLD | 0.122 ± 0.84
GCIWWPTDRPLLLSPAMSYS | 0.133 ± 0.37
GCLAPLLIDLCCFQMRNSSN | 0.05 ± 0.49
GCRMWFAWQVGVILMVDMFI | 0.307 ± 0.81
GCSVVNMADMG | 1.29 ± 0.45
GCVVI | 0.258 ± 0.26
GDKSFSYCSLCCLFWARLPR | 5.83 ± 0.064
GEGQQSGVVSNLSGYRSNS | 0.418 ± 0.51
GELLTLHITGLNEVLVNTSM | -0.21 ± 0.31
GELWLAHLLLRSRVRTHRCP | 5.78 ± 0.068
GENPGQDYASGFLNVFKNYL | 1.01 ± 0.54
GFCYM | 0.997 ± 0.35
GFDKLVGPCGYGLRRGSLWR | 0.781 ± 0.52
GFGLVRIPIMFNEAPEVVSK | -0.133 ± 0.46
GFISIGP | -0.068 ± 0.29
GFKGQRNNAIQVMGKKNRLQ | -0.238 ± 0.59
GFKVVDTAWFL | -0.116 ± 0.27
GFLIGRSD | 0.022 ± 0.43
GFNKSSSGFVSSNGDIDYWD | -1.68 ± 2.1
GFSEKQNY | 0.383 ± 0.54
GFSLDRFSDHVLMGNSD | -0.585 ± 0.23
GFSRQSTWMCRKWSTNPRTW | 1.15 ± 0.34
GFTSHFRYLWHILIRYWSNP | 0.442 ± 0.39
GFVMKLLL | 1.35 ± 0.21
GFVSAKLIPCAVLQKGLLPV | 0.313 ± 0.51

Substance | amyloid nucleation score
GFVTKDWLSVMRYIYQMLTS | -0.016 ± 0.4
GFYGCYSYVVLGGRVEP | -1.02 ± 2.4
GFYGNIYFDNLRLNVMTRRG | 9.21 ± 0.061
GGCVGLCFRYSFPTCDSC | 1.65 ± 0.42
GGEDLRKFLDMFVIVSKNTT | 0.67 ± 0.46
GGFFICQGDTRVV | 0.222 ± 0.58
GGFIR | -0.516 ± 1.1
GGFSNFMMVCNVATFSSNQL | 3.47 ± 0.19
GGHHVSPVCLEWNNLRWDI | 0.897 ± 0.78
GGKRVGNIVVRRAQIIIGRR | 1.07 ± 0.7
GGLICTGNFY | inactive
GGLVYRLEKDSF | inactive
GGNKPCG | 2.11 ± 0.57
GGSFYKAILFNRKCVYVGSR | 0.942 ± 0.51
GGVLGSTKSLFVDPANLGGL | inactive
GGWSGRSLRDCVCMVHIKVG | 0.071 ± 0.75
GGYIDPLS | inactive
GHPVWRCFSDGSSPLFWDYG | inactive
GHRTWRLITAIDA | 0.088 ± 0.4
GHSSRLRFT | -0.42 ± 0.48
GHVVLFLLYDLSFYSNIFCA | 0.712 ± 0.19
GIFKVEHFFKFMYDLIVSKL | -0.312 ± 0.27
GIFSNLEVGYKPKN | -0.694 ± 0.39
